Source: patent US20040063627A1 (BROWN UNIVERSITY RESEARCH FOUNDATION, published 2004)

Target: T1, QE-Bgn (bacterially expressed recombinant human biglycan core) (human, UniProt P21810 38-368)
T1 construct: Produced in E. coli M15[pREP4]; contains no chondroitin sulfate side chains; tested as lysate of induced bacteria on a blot; also called QE-BIG; bacterially-expressed biglycan
T1 sequence: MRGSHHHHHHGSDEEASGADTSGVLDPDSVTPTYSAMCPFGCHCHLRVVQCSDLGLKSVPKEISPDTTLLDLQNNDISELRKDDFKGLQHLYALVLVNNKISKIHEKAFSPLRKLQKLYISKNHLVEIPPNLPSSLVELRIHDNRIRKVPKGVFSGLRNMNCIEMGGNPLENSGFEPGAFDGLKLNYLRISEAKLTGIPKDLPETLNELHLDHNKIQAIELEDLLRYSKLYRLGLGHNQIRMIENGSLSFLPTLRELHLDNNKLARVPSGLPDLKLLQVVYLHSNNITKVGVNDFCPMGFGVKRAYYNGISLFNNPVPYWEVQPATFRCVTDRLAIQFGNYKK
Test: dystroglycan blot overlay on lysate of induced bacteria (FIG. 7)

B1: α-dystroglycan (dystroglycan as named in the overlay assays; fragment not named at the place) (receptor, human, UniProt Q14118 345-653, looked up)
chain: PAIAPPTETMAPPVRDPVPGKPTVTIRTRGAIIQTPTLGPIQPTRVSEAGTTVPGQIRPTMTIPGYVEPTAVATPPTTTTKKPRVSTPKPATPSTDSTTTTTRRPTKKPRTPRPVPRVTTKVSITRLETASPPTRIRTTTSGVPRGGEPNQRPELKNHIDRVDAWVGTYFEVKIPSDTFYDHEDTTTDKLKLTLKLREQQLVGEKSWVQFNSNSQLMYGLPDSSHVGKHEYFMHATDKGGLSAVDAFEIHVHRRPQGDRAPARFKAKFVGDPALVLNDIHKKIALVKKLAFAFGDRNCSTITLQNITRG
notes: also called alpha-dystroglycan
B1: no binding.
